Patent US20090191217A1 (published 2009)

T1: Interleukin-1 receptor type 1 (IL-1R1) on cells (human, UniProt P14778 18-569)
T1 sequence (looked up): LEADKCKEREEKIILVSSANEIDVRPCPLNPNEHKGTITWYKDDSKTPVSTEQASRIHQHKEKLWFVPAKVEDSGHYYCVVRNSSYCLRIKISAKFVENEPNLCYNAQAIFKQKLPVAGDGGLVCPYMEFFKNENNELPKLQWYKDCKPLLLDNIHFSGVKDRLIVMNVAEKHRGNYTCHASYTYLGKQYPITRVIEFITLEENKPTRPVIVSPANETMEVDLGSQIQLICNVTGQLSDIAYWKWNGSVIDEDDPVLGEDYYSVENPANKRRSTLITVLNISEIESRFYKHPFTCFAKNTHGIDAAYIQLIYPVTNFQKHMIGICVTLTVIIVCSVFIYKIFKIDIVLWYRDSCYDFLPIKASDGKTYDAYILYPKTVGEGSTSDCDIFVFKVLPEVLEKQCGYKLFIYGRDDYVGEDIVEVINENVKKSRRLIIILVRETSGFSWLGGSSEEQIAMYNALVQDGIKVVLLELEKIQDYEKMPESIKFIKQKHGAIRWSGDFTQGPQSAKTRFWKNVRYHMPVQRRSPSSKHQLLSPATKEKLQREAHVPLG


target: T1, Interleukin-1 receptor type 1 (IL-1R1) …; assay: cell-based or functional assay

ND50, inhibition of IL-1-induced IL-8 release from MRC-5 cells	Binder
~30 nM	DOM4-130-3 (other) VL: DIQMTQSPSSLSASVGDRVTITCRASQDIYLNLDWYQQKPGKAPKLLIYGTSNLQSGVPSRFSGSGSGTDFTLTISSLQPEDFATYYCQPSFYFPYTFGQGTKVEIRR
~1 nM	DOM4-130-46 (other) VL: DIQMTQSPSSLSASVGDRVTITCRASQDIYLNLDWYQQKPGKAPKLLINFGSELQSGVPSRFSGSGSGTDFTLTISSLQPEDFATYYCQPSFYFPYTFGQGTKVEIRR
~1 nM	DOM4-122-23 (other) VL: DIQMTQSPSSLSASVGDRVTITCRASQWIGRELRWYQQKPGKAPMFLIYHASRLQRGVPSRFSGSGSGTDFTLTISSLQPEDFATYYCQQYHGWPLTFGQGTKVEIKR
~10 nM	DOM4-129-1 (other) VL: DIQMTQSPSSLSASVGDRVTITCRASQNIDRELRWYQQKPGKAPMFLIYHASRLQRGVPSRFSGSGSGTDFTLTISSLQPEDFATYYCQQYHDFPLTFGQGTKVEIKR
~10 nM	DOM4-122-6 (other) VL: DIQMTQSPSSLSASVGDRVTITCRASQWIGRELRWYQQKPGKAPMFLIYHASRLQSGVPSRFSGSGSGTDFTLTISSLQPEDFATYYCQQYHGWPLTFGQGTKVEIKR
